Results from PMC4189725.

Biological target: CD40-FasL
Assay: SEC; gel filtration (Superdex 200) of CD40-FasL conditioned medium; fractions analysed by Western blot (anti FasL) and CD40 ELISA

CD40-FasL
stoichiometry N: 6
